Experimental data published in paper PMC10289234, “Construction of an alpaca immune antibody library for the selection of nanobodies against Drosophila melanogaster proteins” (Frontiers in Bioengineering and Biotechnology, 2023).
Read-outs that look alike come from different tables or passages of the source.

Tests used:
[1] = target: Drosophila Myc, amino acids 1-400 (truncated Myc) (Drosophila melanogaster, strain not …, UniProt Q9W4S7)
[2] = target: T1, Drosophila CyclinE, amino acids 1-361 (truncated CyclinE) (Drosophila melanogaster (Fruit fly)., UniProt P54733); test: ELISA; colonies of the third-round sublibrary tested on a 96-well plate coated with CyclinE, blocked with 3% BSA; absorbance at 405 nm twofold over negative control wells counted as positive; settings: one partner purified
T1 construct: CyclinE of Drosophila melanogaster, 709 aa, amino acids 1-361, PCR-amplified from cDNA and cloned into pET-28a-GFP-TEV; Vector pET-28a-GFP-TEV was built in the authors' laboratory; also called CycE; source: E. coli BL21 (DE3); not shown: GFP, N-terminal, cleaved

[3] = target: T2, Drosophila CG7544, full length (Drosophila melanogaster (Fruit fly)., UniProt Q7K3B9); test: ELISA; 96-well plate coated with 1 ug/well purified antigen, blocked with 3% BSA; 1 ug purified VHH for 2 h at RT; anti-Flag antibody, HRP anti-mouse, TMB, absorbance at 450 nm; negative controls without Flag antibody or VHH; settings: both partners purified
T2 construct: CG7544 of Drosophila melanogaster, 305 aa, RNA N6-methyltransferase of U6 small nuclear RNA; full length, PCR-amplified from Drosophila cDNA and cloned into pET-28a; also called CG7454 (misprint in the results)

[4] = target: T2, Drosophila CG7544, full length

T2 sequence (Q7K3B9 whole entry): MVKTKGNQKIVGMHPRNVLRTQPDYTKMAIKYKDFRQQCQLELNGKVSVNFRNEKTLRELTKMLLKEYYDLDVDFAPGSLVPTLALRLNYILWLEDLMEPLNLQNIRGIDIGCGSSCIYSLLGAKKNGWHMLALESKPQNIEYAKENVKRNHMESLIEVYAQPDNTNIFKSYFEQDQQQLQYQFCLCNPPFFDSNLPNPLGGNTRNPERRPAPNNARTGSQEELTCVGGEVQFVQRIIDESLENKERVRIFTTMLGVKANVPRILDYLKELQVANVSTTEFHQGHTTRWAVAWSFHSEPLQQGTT
Sequence of Drosophila Myc, amino acids 1-400 (truncated Myc) (Q9W4S7 1-400): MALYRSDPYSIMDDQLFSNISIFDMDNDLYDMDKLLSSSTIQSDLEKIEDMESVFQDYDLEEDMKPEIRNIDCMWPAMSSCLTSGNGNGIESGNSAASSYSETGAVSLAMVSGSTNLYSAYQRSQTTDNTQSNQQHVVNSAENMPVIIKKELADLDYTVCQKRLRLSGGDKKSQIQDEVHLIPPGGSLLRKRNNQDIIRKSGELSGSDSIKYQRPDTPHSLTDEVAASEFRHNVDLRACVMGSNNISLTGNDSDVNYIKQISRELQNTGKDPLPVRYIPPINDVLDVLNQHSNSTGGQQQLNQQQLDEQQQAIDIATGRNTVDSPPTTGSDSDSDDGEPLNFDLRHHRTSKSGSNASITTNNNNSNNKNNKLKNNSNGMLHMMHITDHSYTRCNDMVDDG
T1 sequence (P54733 1-361): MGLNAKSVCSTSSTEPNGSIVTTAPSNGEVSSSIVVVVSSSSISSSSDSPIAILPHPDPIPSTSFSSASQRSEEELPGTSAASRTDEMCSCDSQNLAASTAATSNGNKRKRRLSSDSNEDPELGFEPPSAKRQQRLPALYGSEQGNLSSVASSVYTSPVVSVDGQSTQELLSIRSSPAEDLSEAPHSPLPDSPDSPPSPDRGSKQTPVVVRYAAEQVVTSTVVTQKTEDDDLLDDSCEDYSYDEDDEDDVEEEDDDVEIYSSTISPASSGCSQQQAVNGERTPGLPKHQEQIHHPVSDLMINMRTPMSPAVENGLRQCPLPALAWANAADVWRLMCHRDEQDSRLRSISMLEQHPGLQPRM

B1: B12 (VHH)
VHH: DVQLQESGGGLVQPGGSLRLSCAASGFTFEAYTMSWVRQAPGKGLEWVSAISQGGATTAYADSVKGRFTISRDNAKSTLYLQMNNLKPEDTAVYYCAKWVFTPSVLGQGTQVTVSS
B1: binds [1].

B2: N1, VHH of a colony from the third-round sublibrary of CyclinE (VHH)
VHH: DVQLQESGGGLVQAGGSLRLSCAASGGTFSRYSMGWFRQAPGKEREFVSAIGWSGYSTRYADSVKGRFTISRDNAKNTVYLQMNSLKPEDTAVYYCNAIVGVFIKRQYWGQGTQVTVSS
notes: The colony ELISA follows Fang et al., 2020; source: randomly selected colony from the third-round sublibrary of CyclinE (vhh in phage display vector pADL-10b), not purified
B2: binds [2].

B3: C9 (VHH)
VHH: DVQLQESGGTLVQPGGSLRLSCKASGFPFSDYHMSWVRQAPGKRPEWLSVITTSGDWTHYADSVKGRFAISRDNAKSTLYLQMNSLKPDDTAVYYCARGHYIILGQGTQVTVSS
B3: binds [1].

B4: C3, nanobody against CG7544 (Flag-Nb-His) (VHH)
VHH: DVQLQESGGGLVQAGGSLRLSCAASGNTLSTYGMGWFRQAPGKEREFVALINWGGTANYEDSVKGRFTISRDNVQNTMYLQMNNLKPEDTAVYYCFLGTYWGQGTWSPSPA
notes: not shown: Flag, N-terminal, kept
B4: binds [3].

B5: C4 (VHH)
VHH: DVQLQESGGGLVQPGGSLRLSCAASGFTFDSNAFGWFRQAPGKEREGVSCISARDSTTFYADAVKGRFTVSRDSAKNTVYLEMDSLKPEDTAVYYCATLYRATAQAMCAMSTLLGYWGQGTQVTVSS
B5 showed a Kd [4] of 10.5 µM.

B6: C8 (VHH)
VHH: DVQLQESGGGLVQAGGSLRLSCAASGLTSSYYAIGWFRQAPGKDSEGVSCLDTTGNRINLSNSAKGRFTISRDNAKNTVYLQMNNLKPEDTAIYYCTVVLNSLCDSRWIGAFGSWGQGTQVTVSS
B6: binds [4].
